Data on one molecule can be found in paper PMC12282171, “VCY mediates inhibition of PFV replication via interaction with the transcription activator Tas” (Journal of Virology, 2025).

The target in the assay is His-VCY (human, UniProt O14598 1-125). As to the kind of experiment: pull-down; purified His-VCY added to purified GST-Tas or GST coupled to glutathione sepharose, 3 h at 4 °C; western blot. Conditions: both partners purified.

B1: GST-Tas (natural protein)
chain: MDSYEKEESVASTSGIQDLQTLSELVGPENAGEGELTIAEEPEENPRRPRRYTKREVKCVSYHAYKEIEDKHPQHIKLQDWIPTPEEMSKSLCKRLILCGLYSAEKASEILRMPFTVSWEQSDTDPDCFIVSYTCIFCDAVIHDPMPIRWDPEVGIWVKYKPLRGIVGSAVFIMHKHQRNCSLVKPSTSCSEGPKPRPRHDPVLRCDMFEKHHKPRQKRPRRRSIDNESCASSSDTMANEPGSLCTNPLWNPGPLLSGLLEESSNLPNLEVHMSGGPFWEEVYGDSILGPPSGSGEHSVL
notes: also called recombinant GST-Tas; pGST-Tas; source: E. coli BL21, purified (GST column)
B1: the binding result is on record as “binds”.
